From the supplement of paper PMC10724198
± gives the standard deviation of the averaged measurements.

These sequences were tested on Saccharomyces cerevisiae (assay: protein stability index of tFT-peptide fusion (C-terminal peptide) (PSI (0-1 scale)); higher = more stable (slower turnover)). Conditions: genetic background: wild type; temperature: 30 C.
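Also: PSI is a weighted mean of sequencing reads over stability bins, variants kept only with over 10 reads, mCherry proximal and sfGFP distal, peptide attached via GGGS linker.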

Sequence	protein stability index
HSPSSLPRLRPQ	0.621 ± 0.044
HSRPPPSPPDPA	0.603 ± 0.033
HSRTLTQKKTNN	0.715 ± 0.038
HSSHPRPHRTLI	0.661 ± 0.012
HSWSLLFSPSFP	0.658 ± 0.082
HTAYPPPHRTPP	0.629 ± 0.11
HTEYQGAGIPDE	0.752 ± 0.037
HTFSRLHSLPIR	0.693 ± 0.0082
HTNKNTTIQNKK	0.702 ± 0.11
HTRPTALLPLSR	0.701 ± 0.014
HTSKFKKQRKKR	0.7975 ± 0.0022
HTWALERVCSLD	0.687 ± 0.066
HTYQAAFRSHAI	0.6544 ± 0.00072
HVKLLSSNGPLV	0.671 ± 0.031
HVLRVWKMCVLE	0.586 ± 0.033
HVTFPLRRTFRR	0.697 ± 0.013
HWRRGGRRGGDR	0.703 ± 0.1
HYPGSGAVEQHE	0.599 ± 0.016
HYSPLPSLPPLP	0.684 ± 0.077
IADRLAAIPMRY	0.669 ± 0.011
IARTGLGIIIKI	0.663 ± 0.054
IASSRPHSNQRE	0.692 ± 0.021
ICRGLTVPGVAI	0.612 ± 0.0095

Sequence	protein stability index
ICWSTALDASFG	0.725 ± 0.024
IDLLTRKVDLFN	0.66 ± 0.055
IDLTLLRHPAYL	0.732 ± 0.05
IDSWWLPSDLKV	0.835 ± 0.017
IDVLTGTDAGPT	0.6278 ± 0.004
IECACVPLVAGG	0.656 ± 0.024
IECLRVVRSRCG	0.6724 ± 0.0023
IEKKNKTKKKRI	0.748 ± 0.13
IERGLEGHLGHC	0.668 ± 0.035
IESRGCSMQKRL	0.7489 ± 0.0039
IESVGRTTRQGE	0.748 ± 0.11
IFRERWGCFEAI	0.763 ± 0.13
IFRLFAFHENRG	0.679 ± 0.051
IFSIRCFHSDFV	0.6486 ± 0.0028
IFVCRCFGFFGG	0.681 ± 0.04
IGAHTRRRVNGA	0.675 ± 0.096
IGCCSGYGGERG	0.691 ± 0.018
IGGIIFICTSNK	0.555 ± 0.015
IGGVSHEMKAKR	0.619 ± 0.013
IGLISTQYYWSL	0.621 ± 0.043
IGPRGPFHLTRI	0.675 ± 0.037
IGSEGGKNGRRK	0.616 ± 0.044
IGVGVGIDGLPW	0.693 ± 0.093

Sequence	protein stability index
IHCFSVDLLVAR	0.542 ± 0.018
IHLTRGGNGHMD	0.6 ± 0.04
IHPKREPRDNNI	0.679 ± 0.015
IHVKKNQACSLF	0.646 ± 0.024
IIDKQENNLKSE	0.7513 ± 0.0011
IIKPPDIQQSRQ	0.739 ± 0.026
IIKRKKLMEKRT	0.663 ± 0.013
IINKRKKKKDKG	0.644 ± 0.019
IISAIAPFIRWD	0.69 ± 0.03
IKGHLYDFPPGT	0.792 ± 0.1
IKHKSKKNNCKK	0.744 ± 0.052
IKIIKNDQKRIK	0.709 ± 0.061
IKKITKTKPNHN	0.673 ± 0.053
IKKKKEEKKKKK	0.586 ± 0.023
IKKLNTYIKRNV	0.586 ± 0.025
IKKLYIICQQMK	0.666 ± 0.035
IKKNKKKKNERK	0.675 ± 0.025
IKQEKPTKLPEP	0.6435 ± 0.0052
IKREATNASEPN	0.686 ± 0.057
IKREGRDNEEKK	0.703 ± 0.039
IKTKKKKENKRR	0.723 ± 0.008
IKTLLDYESMRS	0.768 ± 0.034
IKVKRRQLKQEK	0.779 ± 0.097

Sequence	protein stability index
ILCPFSGCGAGG	0.683 ± 0.022
ILEGFRHVSPVG	0.717 ± 0.085
ILFGSILGVPLL	0.661 ± 0.01
ILFSILHLLSYL	0.6426 ± 0.0039
ILVHFQGVHTVL	0.663 ± 0.018
IMCPVRDSNIFS	0.733 ± 0.026
INIKKKKKIQHI	0.564 ± 0.016
INKRKQKLIKKV	0.628 ± 0.0069
INWGVRGTLSSE	0.706 ± 0.04
IPLSPLRSPPPR	0.648 ± 0.023
IPRPFRSLPFLP	0.7307 ± 0.0047
IPRRMFNIRKKR	0.666 ± 0.036
IQAVHYTARVPN	0.664 ± 0.072
IQIGESLYFWFV	0.654 ± 0.066
IRAGRGPARVVP	0.707 ± 0.058
IRLMTTIITYMI	0.44 ± 0.13
IRPNLERKIKVR	0.6226 ± 0.0014
IRQPNHSIGPHG	0.719 ± 0.024
IRRHNVELSGYL	0.641 ± 0.022
IRRKLINYIKKG	0.619 ± 0.066
IRRLCGSSRPLP	0.708 ± 0.037
IRSAGEKDRKRE	0.696 ± 0.03
IRSVNFNIFVKR	0.748 ± 0.057

Sequence	protein stability index
IRSVVLSSCWRG	0.706 ± 0.0097
IRVADLNSSSFC	0.888 ± 0.16
ISIRKNSNQETM	0.692 ± 0.14
ISPRSRSCAYGV	0.734 ± 0.073
ISRDNSQITRNM	0.68 ± 0.015
ITALSSPVRDKL	0.646 ± 0.061
ITEGGANLEGRF	0.661 ± 0.029
ITGPLAPYLGGF	0.688 ± 0.037
ITIPICTTFHHV	0.731 ± 0.029
ITIPISGLQVGV	0.591 ± 0.027
ITNQVIRLSLSN	0.732 ± 0.083
ITRAVLPARLFR	0.705 ± 0.013
ITRDFQLWASDL	0.708 ± 0.0083
ITSHRDSVSRWK	0.707 ± 0.0095
ITSQLWGVPLPY	0.7134 ± 0.0032
IVGRGGRGGWGV	0.685 ± 0.04
IVLHLAASPTPP	0.65 ± 0.015
IVLRRRKVTRRI	0.68 ± 0.043
IVPIVDMMIIRK	0.653 ± 0.068
IVPPALRSDGRR	0.668 ± 0.035
IVSPSYGEGSIR	0.695 ± 0.026
IVSVSLYLYHFR	0.548 ± 0.0059
IWFRGGPGQVPV	0.683 ± 0.027

Sequence	protein stability index
IWGLSGGKKLLW	0.718 ± 0.043
IWQLRARIQAGW	0.617 ± 0.047
IWTRAFAPSNRF	0.715 ± 0.02
KACVKRVYCILE	0.58 ± 0.015
KAEEKARGEDWQ	0.681 ± 0.05
KAGGGEGRDAWG	0.667 ± 0.049
KAKKKRRGTSKN	0.703 ± 0.066
KARMTDQLKSTS	0.672 ± 0.045
KATIRRGGKKEK	0.682 ± 0.014
KCGLQRFREAIY	0.61 ± 0.0084
KCKLNDTETMGK	0.693 ± 0.026
KCLCGVHVRLRA	0.5901 ± 0.0017
KDDHTLMTKYNA	0.643 ± 0.025
KDEGIRENKPNH	0.668 ± 0.078
KDGMATKCIAYT	0.657 ± 0.011
KDLEIKKEKRKD	0.666 ± 0.015
KEARHCAQRKDI	0.546 ± 0.062
KEKNKIKNREVK	0.618 ± 0.052
KENKKKKQRKLK	0.774 ± 0.067
KEQKKKLKKKHG	0.594 ± 0.099
KERKEKKKKKNK	0.7227 ± 0.0045
KESEKRKRENKN	0.698 ± 0.025
KESKIKDKNSII	0.734 ± 0.012

Sequence	protein stability index
KETLRMKFNSWK	0.6764 ± 0.0043
KETSERKNKETG	0.624 ± 0.041
KFKAYNIKKWKE	0.702 ± 0.03
KFVSQLGQRTRF	0.745 ± 0.05
KGEGGEGSMGGA	0.733 ± 0.053
KGGCGAGRDGRG	0.731 ± 0.026
KGGFGCVGLPGG	0.638 ± 0.031
KGHQGGLSEGMI	0.6 ± 0.092
KGMEWEKGYKRL	0.838 ± 0.23
KGQNLAVTRERE	0.7 ± 0.024
KGRLRVGAAGCD	0.633 ± 0.011
KGYGKTGTLRHD	0.646 ± 0.013
KHQNEKKQTNKA	0.623 ± 0.034
KIDQLDHVGLYS	0.674 ± 0.015
KIEHEGIKTGGT	0.757 ± 0.16
KIFRNKHENDLK	0.695 ± 0.026
KIHRNGNKKEKD	0.7 ± 0.013
KIKKKKEQTKKK	0.752 ± 0.15
KIKKKKKKNKEH	0.591 ± 0.028
KIKRKKSIHDKQ	0.693 ± 0.012
KIKRTNKNIKKS	0.672 ± 0.017
KIKSEFNMIGKN	0.693 ± 0.091
